Numbering of substitutions follows the chain as printed. In names and notes the source's numbering stands.
Assays:
[1] = molecular target: T1, taxol-stabilized microtubules (α-/β-tubulin) (bovine, UniProt P81947 1-451; Q6B856 1-445); assay: co-sedimentation; Kd determination: 0-10 μM taxol-stabilized microtubules (tubulin dimer), 1 μM BSA, 1 μM protein of interest; 25 mM Hepes pH 7.5, 150 mM NaCl, 1 mM MgCl2, 1 mM EGTA, 2 mM DTE; 10 min room temperature; 350,000 g, 25 °C; gel densitometry, quadratic fit; apparent Kd; conditions: both partners purified
T1 construct: α-tubulin, named α-1B tubulin in the cross-linking analysis; β-tubulin, named β-2B tubulin in the cross-linking analysis; Polymer of α/β-tubulin dimers; Bought tubulin is likely a mixture of isotypes; In the polymerization assay (functional rows) the same tubulin was used unpolymerized; also called MTs; α-1B and β-2B tubulin; source: bought: Cytoskeleton, Inc; polymerized according to …
T1 sequence (P81947 whole entry, chain 1 of 2): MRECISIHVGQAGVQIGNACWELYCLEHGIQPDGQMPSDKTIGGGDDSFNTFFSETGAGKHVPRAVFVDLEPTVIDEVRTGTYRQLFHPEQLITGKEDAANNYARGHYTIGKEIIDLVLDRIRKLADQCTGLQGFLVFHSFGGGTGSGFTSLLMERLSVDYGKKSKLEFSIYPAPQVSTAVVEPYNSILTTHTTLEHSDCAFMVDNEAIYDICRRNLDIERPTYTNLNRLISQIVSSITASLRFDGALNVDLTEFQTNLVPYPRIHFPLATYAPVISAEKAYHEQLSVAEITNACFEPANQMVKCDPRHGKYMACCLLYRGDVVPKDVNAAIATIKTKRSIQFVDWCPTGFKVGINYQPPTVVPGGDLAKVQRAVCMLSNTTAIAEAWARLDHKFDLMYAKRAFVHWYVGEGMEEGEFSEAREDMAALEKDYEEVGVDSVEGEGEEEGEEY
T1 sequence (Q6B856 whole entry, chain 2 of 2): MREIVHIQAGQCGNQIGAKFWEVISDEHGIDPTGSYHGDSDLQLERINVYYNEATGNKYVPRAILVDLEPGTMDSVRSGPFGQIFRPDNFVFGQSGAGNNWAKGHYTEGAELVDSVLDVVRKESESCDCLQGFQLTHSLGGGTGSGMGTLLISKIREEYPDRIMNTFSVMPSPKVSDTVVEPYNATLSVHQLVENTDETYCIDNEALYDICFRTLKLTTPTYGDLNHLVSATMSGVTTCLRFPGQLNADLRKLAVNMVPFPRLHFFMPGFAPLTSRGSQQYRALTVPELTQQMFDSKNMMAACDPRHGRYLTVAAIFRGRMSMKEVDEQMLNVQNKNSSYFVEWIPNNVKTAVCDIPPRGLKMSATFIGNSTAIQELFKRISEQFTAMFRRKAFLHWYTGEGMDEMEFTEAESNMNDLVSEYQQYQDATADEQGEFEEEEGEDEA

[2] = molecular target: the molecule itself; assay: AUC + cross-linking; sedimentation velocity, 42,000 r.p.m., 20 °C, 20 mM Hepes pH 7.5, 300 mM NaCl, 10% glycerol, 2 mM DTE; cross-linking conditions not told (Supplementary Fig. 3)

B1: SKAP^159–225 (domain or fragment, human, UniProt Q9Y448 159-225, looked up)
chain: VRKGYKPLSKQKSEEELKDKNQLLEAVNKQLHQKLTETQGELKDLTQKVELLEKFRDNCLAILESKG
notes: Small kinetochore-associated protein (SKAP); source: E. coli OverExpress C41 (DE3), purified (GSTrap FF, HiTrap Q FF, Superdex 200); not shown: GST, N-terminal, cleaved
Kd [1]: ~2500 nM

B2: SKAP^103–225 (domain or fragment, human, UniProt Q9Y448 103-225, looked up)
chain: TQTRATSKSLLPVRSKEVDVSKQLHSGGPENDVTKITKLRRENGQMKATDTATRRNVRKGYKPLSKQKSEEELKDKNQLLEAVNKQLHQKLTETQGELKDLTQKVELLEKFRDNCLAILESKG
notes: Small kinetochore-associated protein (SKAP)
binding result [1]: binds

B3: SKAP^135–225 2A mutant (K161A, K164A) (domain or fragment, human, UniProt Q9Y448 135-225, looked up)
chain: VTKITKLRRENGQMKATDTATRRNVRAGYAPLSKQKSEEELKDKNQLLEAVNKQLHQKLTETQGELKDLTQKVELLEKFRDNCLAILESKG
notes: Small kinetochore-associated protein (SKAP); source: E. coli OverExpress C41 (DE3), purified (GSTrap FF, HiTrap Q FF, Superdex 200)
fold reduction of microtubule-binding affinity against wild type [1]: ~4 fold

B4: SKAP^135–225 4A mutant (K140A, K149A, K161A, K164A) (domain or fragment, human, UniProt Q9Y448 135-225, looked up)
chain: B3 chain with K6A, K15A
notes: as for B3
fold reduction of microtubule-binding affinity against wild type [1]: ~31 fold

B5: SKAP^135–225 (domain or fragment, human, UniProt Q9Y448 135-225, looked up)
chain: B3 chain with A27K, A30K
notes: Small kinetochore-associated protein (SKAP); Behaved as a trimer in AUC and cross-linking; also called WT; source: E. coli OverExpress C41 (DE3), purified (GSTrap FF, HiTrap Q FF, Superdex 200)
stoichiometry N [2]: 3 | Kd [1]: ~580 nM

B6: SKAP^159–316:Astrin^482–850 complex (complex, human)
chain 1: VRKGYKPLSKQKSEEELKDKNQLLEAVNKQLHQKLTETQGELKDLTQKVELLEKFRDNCLAILESKGLDPALGSETLASRQESTTDHMDSMLLLETLQEELKLFNETAKKQMEELQALKVKLEMKEERVRFLEQQTLCNNQVNDLTTALKEMEQLLEM
chain 2: NKLQHLKESHEMGQALQQARNVMQSWVLISKELISLLHLSLLHLEEDKTTVSQESRRAETLVCCCFDLLKKLRAKLQSLKAEREEARHREEMALRGKDAAEIVLEAFCAHASQRISQLEQDLASMREFRGLLKDAQTQLVGLHAKQEELVQQTVSLTSTLQQDWRSMQLDYTTWTALLSRSRQLTEKLTVKSQQALQERDVAIEEKQEVSRVLEQVSAQLEECKGQTEQLELENSRLATDLRAQLQILANMDSQLKELQSQHTHCAQDLAMKDELLCQLTQSNEEQAAQWQKEEMALKHMQAELQQQQAVLAKEVRDLKETLEFADQENQVAHLELGQVECQLKTTLEVLRERSLQCENLKDTVENLTA
notes: Small kinetochore-associated protein (SKAP); Stoichiometry of the complex was not determined (AUC thwarted by limited solubility); also called SKAP:Astrin complex; source: Tnao38 insect cells (baculovirus), co-expressed, purified (HisTrap FF, Superose 6)
Kd [1]: ~1600 nM

B7: SKAP^159–316 (expressed alone in E. coli) (domain or fragment, human, UniProt Q9Y448 159-316, looked up)
chain: B6 chain 1
notes: as for B1
binding result [1]: binds
